In the RNAGym collection of RNA variant scans (doi:10.7554/elife.90254):

B1: LINE1-full (parent)
chain: UACGUAGGUGGUUUUCCCCUGAUAGUGCUAAGGGGGCCUGGAAGUUUGGACUGGGCAGAGCUCAACACAGCGUGGCAAAGUGGCUGUGGCUAGACUGCCUCUCUGGAUUCCUCGUCACUCAGCAGGGCAUCUCUGAGAGAAAUGCC

Variants of: B1
Assay: self-cleavage, relative activity (ratio to wild type); higher = more cleavage; in vitro, sequencing; the parent is a self-cleaving ribozyme

Variant | self-cleavage
U20A U87G | 0.21
U20A U87A | 0.11
U20A U87C | 0.31
G21C U132C | 1.27
G21A A65C | 0.02
U20G U85G | 0.1
U20G U85C | 0.18
U20A G41U | 0.96
U20A G41C | 0.73
U20G A64U | 0.71
A22G A65G | 0.08
A22C U96C | 0.26
U20C C116A | 1.5
A22G C76G | 2.86
U20C A124U | 1.17
U20C A124G | 1.06
G21A C118U | 1.07
A22G C110U | 0.92
U20C G126A | 1.8
U20G A129C | 1.95
A22G U52A | 1.21
U20C A24U | 1.37
U20C A24G | 1.11
U20C A94G | 0.39

Variant | self-cleavage
U20C A94U | 0.28
U20C G48U | 1.27
U20C A78G | 1.52
U20G U73C | 1.39
U20G U73G | 0.49
U20G A69U | 0
U20G C61U | 0.09
A22G U108C | 1.16
U20C C95A | 0.09
U20C C95U | 0.27
G21U C56G | 0.02
A22G U73G | 1.49
A22G U73C | 1.37
U20G U39C | 0.98
U20C U46C | 1.5
U20C G114A | 1.57
U20C A50U | 1.32
U20C A59U | 0.82
A22G A64U | 0.41
A22G A64G | 0.34
U20G U100C | 1.06
U20A G139A | 0.53
G21A C120A | 1.11
A22G A78U | 1.85

Variant | self-cleavage
A22G A78G | 0.94
U20C U130A | 1.65
U20C U130C | 1.77
U20C U130G | 1.63
U20C C113U | 1.62
U20G A42G | 0.67
G21A C145U | 0.32
U20A U132C | 1.49
U20C U132C | 1.23
U20C U132A | 1.63
U20C A42G | 1.25
A22G A79U | 1.51
U20C U143C | 1.29
A22G A92G | 0.2
A22G A92U | 0.79
A22G C145U | 0.97
U20C G72U | 0.9
U20A U143C | 0.9
U20A U143A | 1.43
A22G G33A | 0.65
A22G C95U | 0.53
G21A U52A | 1.76
U20A U47A | 1.07
U20A U47C | 1.31

Variant | self-cleavage
U20A G25A | 0.37
A22G U96C | 0.2
U20A G137U | 0.85
A22G G34U | 1.66
G21A U73C | 1.41
U20G A141G | 0.87
A22C A124G | 1.92
A22G G48U | 1.05
U20G U104A | 1.29
U20C G32U | 0.94
A22C A129G | 1.39
U20A G49A | 1.37
U20C U115C | 1.57
U20A U81C | 0.84
A22G A136U | 0.87
A22G A136G | 1.17
A22G A136C | 1.49
A22G A142U | 0.92
U20A G32C | 1.33
U20C G36A | 1.23
U20G G27A | 0.92
A22C U102C | 1.55
U20A U62A | 0.07
U20C C101U | 1.11

Variant | self-cleavage
G21A U119C | 1.25
G21A A59U | 0.57
U20A G114A | 1.4
A22U A50G | 1.01
U20A U46C | 1.49
U20A U46A | 0.96
U20A U96A | 0.05
A22G G88A | 0.14
A22G G106U | 0.73
A22G U85G | 0.45
A22G U85C | 0.27
A22G U29A | 1.24
G21U A79G | 1.32
U20C A30G | 1.39
U20C A30U | 1.18
U20C G135A | 1.48
A22G C68U | 0.98
A22G C51A | 0.4
G21U C131U | 1.41
A22G A43U | 0.88
U20A U45A | 1.05
A22G A69G | 0.59
A22G A69U | 0.14
U20A U29C | 1.09

Variant | self-cleavage
U20G U102C | 1.73
U20C A67G | 0.74
U20C A67U | 0.15
U20A G33U | 0.66
U20C A140C | 2.05
U20C A140U | 0.95
U20C U85A | 0.11
U20C U85C | 0.38
U20C C128U | 1.24
U20C U81A | 1.44
U20C U81C | 1.13
U20A G135U | 0.43
U20C A142G | 1.36
U20C A142U | 2.2
U20C A142C | 1.88
U20G A140U | 1.23
U20G A140G | 0.96
A22G G36C | 0.37
A22C U143C | 1.41
U20C U39G | 0.8
U20A C131U | 1.36
U20C C76U | 2.18
U20G U52A | 1.36
A22G G83U | 0.58

Variant | self-cleavage
U20C U112C | 1.4
U20C U112A | 0.61
A22G U130C | 1.3
A22G U130A | 1.52
A22C A42G | 1.86
U20C A65U | 0.14
U20C U104A | 1.17
U20A U85A | 0.11
U20A U85G | 0.1
G21A U91A | 0.37
U20G A136G | 1.03
A22G U112A | 1.84
A22G U112C | 1.25
G21A A67C | 0.02
G21U G35A | 1.36
U20G G74A | 1.29
U20A C90U | 0.02
A22G U109A | 1.13
U20A G53A | 1.01
G21A A141G | 1.16
G21A C38A | 1.07
U20A G97C | 0.34
U20G G127A | 1.37
U20C C110A | 0.41

Variant | self-cleavage
A22G U132A | 0.48
A22G U132C | 1.11
U20C A121U | 1.44
G21A U62C | 0.05
U20G G135A | 0.98
A22G A50G | 0.97
U20C U119C | 1.35
U20A U112A | 1.82
U20C C66U | 0
A22G G126A | 1.74
U20G A107G | 0.72
G21A A124G | 0.9
A22C U115A | 1.46
U20G U134C | 0.64
U20C U96A | 0.12
A22G A30G | 0.86
A22G A30U | 0.58
A22G G32A | 0.57
A22G G32U | 0.6
U20A U115A | 2.02
A22G C123U | 0.99
U20A U104C | 0.93
U20G A78G | 1.1
U20C U73C | 1.62

Variant | self-cleavage
U20C U73A | 1.56
G21A U132C | 1.63
U20G U96G | 0
G21U A136G | 1.84
U20C G54A | 0.65
G21A U100C | 1.72
G21U A92G | 0.1
G21A G135A | 1.22
U20C C84G | 0.09
U20A U26A | 1.23
A22G U81G | 1.03
A22G U81C | 1.18
U20A C111A | 1.19
U20C A141G | 1.54
U20C A141U | 1.36
U20A U134C | 1.32
G21U A94U | 0.39
A22G C131G | 1.8
A22G C131U | 1.03
U20A U109C | 1.25
U20A U109A | 0.88
A22G U100G | 1.75
U20A C120U | 1.32
U20C A57G | 1.19

Variant | self-cleavage
U20C A57U | 0.07
U20G U109G | 0.43
U20G U109C | 0.93
U20C G49A | 1.54
A22C A50U | 1.02
U20C U62G | 0.03
U20C U62A | 0.11
A22U A43U | 1.43
A22G A67U | 0.23
A22G A67G | 0.63
A22G G125A | 1.9
G21A U115G | 0.96
G21A U115C | 2.12
A22G U47A | 1.15
U20C G33C | 0.74
U20C G33A | 0.99
A22G C84U | 0.24
U20A G58C | 0.08
A22G C101A | 1.47
A22C A30G | 1.18
A22G U115G | 1.23
U20G U46C | 2.3
U20G U132C | 1.4
A22U A57G | 0.84

Variant | self-cleavage
A22U A57U | 0.12
U20C U45G | 1.38
U20C U45C | 1.19
U20C U45A | 1.2
A22G A57U | 0.2
A22G A57G | 0.67
A22G G27A | 1
A22G U46A | 0.95
U20A U108C | 1.95
U20A G35C | 1.12
G21A A57U | 0.02
G21A A57C | 0.09
A22G G53A | 1.09
A22G G137A | 1.52
A22G C98U | 0.64
G21U U47C | 0.72
U20A U39A | 0.84
U20C C146U | 1.27
U20C A92G | 0.08
U20C A92U | 0.72
A22G A129C | 0.27
U20C G75A | 1.16
G21U A42U | 1.03
G21U A42G | 0.8

Variant | self-cleavage
A22G U87C | 0.28
A22G U87A | 0.22
G21A G114A | 2.07
A22C U81C | 1.04
A22G C38U | 1.95
A22G U119C | 1.43
A22G U119A | 2.19
A22G C37G | 0.79
U20C G86A | 0.11
A22G A117G | 0.97
A22G A117U | 1.29
A22G U45C | 1.33
U20C A136U | 1.51
G21U U134A | 1.27
G21C U109C | 1.18
A22G A124C | 1.49
A22G A124U | 0.8
A22G A124G | 0.96
G21U U73C | 2.04
U20G U29A | 0.8
U20G U29C | 1.36
G21U G127A | 1.99
A22C U46A | 2.21
U20C G83A | 1

Variant | self-cleavage
A22G A107U | 0
G21C U47A | 0.91
G21U | 1.1
G21C | 0.69
G21A | 1.14
G21U U45C | 1.44
A22G C63A | 0.05
U20C G44U | 1.06
G21A G137A | 1.21
A22G C113U | 0.92
A22G C113G | 0.82
U20A C68U | 0.35
U20C C118G | 1.45
U20C C118U | 1.2
U20C C131U | 1.18
A22G G70A | 0.18
A22G A59G | 0.16
U20A U100C | 1.49
U20A U100A | 0.78
A22G U26C | 0.83
A22G U26G | 0.75
A22G U26A | 1.4
U20C G40A | 1.1
U20G U115C | 1.95

Variant | self-cleavage
A22G C128U | 1.26
A22G G80A | 2.37
U20A U23C | 0.83
U20C A117U | 1.61
U20C A117C | 1.64
U20C C133U | 1.16
U20C U47C | 1.57
U20C U52G | 1.81
U20C U52C | 1.76
U20C U23A | 1.81
U20C U23C | 1.2
U20G U47C | 0
U20G U47A | 0.51
A22C U39C | 2.06
U20C G25A | 0.84
U20C G41A | 1.27
G21A U102C | 1.79
U20C A138U | 1.42
U20C A138G | 1.55
G21U U81C | 1.01
U20A C71U | 1.22
A22G C90U | 0.04
